These results are taken from paper PMC3059534.

The target in data set [1] is Mre11-Rad50-Xrs2 (MRX);Sae2 (Saccharomyces cerevisiae (budding …, UniProt P32829;P12753;P33301;P46946 1-692;1-1312;1-854;1-345, |)). The data set can be described thus: EMSA. Background: A gel shift assay detects complexes by their altered migration in electrophoresis.
Data set [2] has as its target T1, Sae2 (Saccharomyces cerevisiae (budding yeast), UniProt P46946 1-345).
T1 sequence: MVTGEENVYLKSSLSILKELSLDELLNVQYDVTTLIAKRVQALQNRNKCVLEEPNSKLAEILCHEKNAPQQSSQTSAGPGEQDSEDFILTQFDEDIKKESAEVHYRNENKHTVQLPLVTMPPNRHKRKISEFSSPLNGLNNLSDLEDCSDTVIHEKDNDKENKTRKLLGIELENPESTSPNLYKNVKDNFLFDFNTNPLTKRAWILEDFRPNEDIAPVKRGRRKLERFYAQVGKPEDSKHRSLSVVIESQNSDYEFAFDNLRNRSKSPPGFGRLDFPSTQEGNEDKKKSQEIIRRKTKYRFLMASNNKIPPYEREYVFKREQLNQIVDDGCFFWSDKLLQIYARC
The data set can be described thus: EMSA.

Data set [3] concerns the target M(H125N)RX (Saccharomyces cerevisiae (budding yeast), UniProt P32829;P12753;P33301 1-692;1-1312;1-854, H125N;Mre11). Kind of data set: EMSA.
Data set [4] addresses T2, Exo1 D173A (Saccharomyces cerevisiae (budding yeast), UniProt P39875 1-702, D173A).
T2 sequence: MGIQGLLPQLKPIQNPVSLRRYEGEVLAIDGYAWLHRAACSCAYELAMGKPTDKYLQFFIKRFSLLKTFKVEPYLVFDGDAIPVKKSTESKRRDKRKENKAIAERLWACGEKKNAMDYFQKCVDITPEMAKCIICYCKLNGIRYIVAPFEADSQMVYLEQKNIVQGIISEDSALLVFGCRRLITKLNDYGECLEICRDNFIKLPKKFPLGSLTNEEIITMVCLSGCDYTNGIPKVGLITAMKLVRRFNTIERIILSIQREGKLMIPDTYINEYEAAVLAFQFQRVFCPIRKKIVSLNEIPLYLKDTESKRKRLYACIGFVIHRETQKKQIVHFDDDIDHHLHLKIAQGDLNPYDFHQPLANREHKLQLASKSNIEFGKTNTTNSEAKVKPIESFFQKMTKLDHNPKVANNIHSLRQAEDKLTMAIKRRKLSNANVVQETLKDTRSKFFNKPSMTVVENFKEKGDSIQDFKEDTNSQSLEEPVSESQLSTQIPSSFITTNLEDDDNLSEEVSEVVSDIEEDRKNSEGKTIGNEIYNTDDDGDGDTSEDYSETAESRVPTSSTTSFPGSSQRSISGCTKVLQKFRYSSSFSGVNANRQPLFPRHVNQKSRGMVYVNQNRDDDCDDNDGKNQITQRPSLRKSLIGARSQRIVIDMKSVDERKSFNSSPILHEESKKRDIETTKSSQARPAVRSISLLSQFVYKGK
Kind of data set: EMSA.

For data set [5], the target named is T3, Exo1 (form in crosslinking assay not stated) (Saccharomyces cerevisiae (budding yeast), UniProt P39875 1-702).
T3 sequence: T2 sequence with A173D
The data set can be described thus: UV photo-crosslinking.

In data set [6] the target is Exo1 (form in crosslinking assay not stated);Mre11-Rad50-Xrs2 (MRX);Sae2 (Saccharomyces cerevisiae (budding …, UniProt P39875;P32829;P12753;P33301;P46946 1-702;1-692;1-1312;1-854;1-345, ||)). The data set can be described thus: UV photo-crosslinking.
The target of data set [7] is T1, Sae2. Kind of data set: UV photo-crosslinking.
The target in data set [8] is Exo1 D173A;Mre11-Rad50-Xrs2 (MRX) (Saccharomyces cerevisiae (budding …, UniProt P39875;P32829;P12753;P33301 1-702;1-692;1-1312;1-854, D173A|)). Kind of data set: pull-down.

Numbering of substitutions follows the chain as printed.

Sequence of M(H125N)RX (P32829 whole entry H125N, chain 1 of 3): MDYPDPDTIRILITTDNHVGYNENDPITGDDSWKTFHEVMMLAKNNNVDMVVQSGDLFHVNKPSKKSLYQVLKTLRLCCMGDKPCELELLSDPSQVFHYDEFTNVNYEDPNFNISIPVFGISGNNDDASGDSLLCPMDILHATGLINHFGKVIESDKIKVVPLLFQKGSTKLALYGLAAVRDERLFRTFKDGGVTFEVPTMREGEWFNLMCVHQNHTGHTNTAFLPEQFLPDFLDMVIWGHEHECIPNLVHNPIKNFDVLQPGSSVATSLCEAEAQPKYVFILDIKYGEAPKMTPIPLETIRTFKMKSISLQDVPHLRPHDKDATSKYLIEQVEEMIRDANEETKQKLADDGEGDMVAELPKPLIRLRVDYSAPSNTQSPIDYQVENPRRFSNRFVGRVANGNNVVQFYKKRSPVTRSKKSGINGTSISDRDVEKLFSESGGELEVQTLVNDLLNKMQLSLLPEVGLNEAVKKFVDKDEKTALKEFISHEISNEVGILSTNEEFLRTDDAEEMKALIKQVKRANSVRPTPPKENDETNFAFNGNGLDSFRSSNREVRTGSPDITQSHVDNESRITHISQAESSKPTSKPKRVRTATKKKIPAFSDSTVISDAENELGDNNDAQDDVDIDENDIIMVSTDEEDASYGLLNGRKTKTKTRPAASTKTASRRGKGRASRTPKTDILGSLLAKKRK
Sequence of M(H125N)RX (P12753 whole entry, stated change not applied, chain 2 of 3): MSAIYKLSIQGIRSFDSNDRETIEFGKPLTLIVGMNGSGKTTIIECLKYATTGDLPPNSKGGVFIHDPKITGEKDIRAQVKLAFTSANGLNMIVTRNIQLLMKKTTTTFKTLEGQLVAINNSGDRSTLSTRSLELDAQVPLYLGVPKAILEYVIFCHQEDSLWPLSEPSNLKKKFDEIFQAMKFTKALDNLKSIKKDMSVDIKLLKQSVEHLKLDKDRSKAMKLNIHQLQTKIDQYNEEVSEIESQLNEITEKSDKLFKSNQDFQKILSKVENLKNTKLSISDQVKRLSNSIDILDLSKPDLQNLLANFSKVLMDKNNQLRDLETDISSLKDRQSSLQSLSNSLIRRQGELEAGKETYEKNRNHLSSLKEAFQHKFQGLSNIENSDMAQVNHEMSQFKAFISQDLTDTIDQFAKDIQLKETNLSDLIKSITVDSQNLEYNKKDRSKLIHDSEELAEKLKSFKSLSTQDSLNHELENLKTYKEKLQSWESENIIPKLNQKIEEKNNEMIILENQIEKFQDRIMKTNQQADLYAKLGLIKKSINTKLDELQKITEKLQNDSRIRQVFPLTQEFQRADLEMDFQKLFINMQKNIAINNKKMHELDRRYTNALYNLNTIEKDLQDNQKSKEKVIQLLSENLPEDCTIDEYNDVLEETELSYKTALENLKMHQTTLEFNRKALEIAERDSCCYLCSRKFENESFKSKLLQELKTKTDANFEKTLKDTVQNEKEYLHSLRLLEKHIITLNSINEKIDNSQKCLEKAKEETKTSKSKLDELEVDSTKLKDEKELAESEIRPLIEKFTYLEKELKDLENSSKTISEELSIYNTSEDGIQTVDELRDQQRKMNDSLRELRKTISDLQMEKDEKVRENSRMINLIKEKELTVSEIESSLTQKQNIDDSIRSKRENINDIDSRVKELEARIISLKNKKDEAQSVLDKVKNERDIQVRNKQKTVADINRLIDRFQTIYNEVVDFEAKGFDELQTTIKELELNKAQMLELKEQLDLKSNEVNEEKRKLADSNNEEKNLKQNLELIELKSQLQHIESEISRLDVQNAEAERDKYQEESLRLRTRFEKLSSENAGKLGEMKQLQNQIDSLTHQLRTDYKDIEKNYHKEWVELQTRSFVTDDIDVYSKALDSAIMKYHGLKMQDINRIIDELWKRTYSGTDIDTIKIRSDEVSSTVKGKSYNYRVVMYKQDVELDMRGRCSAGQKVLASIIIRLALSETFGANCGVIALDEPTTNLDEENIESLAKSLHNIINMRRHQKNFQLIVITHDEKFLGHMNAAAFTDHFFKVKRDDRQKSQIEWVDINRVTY
Sequence of M(H125N)RX (P33301 whole entry, stated change not applied, chain 3 of 3): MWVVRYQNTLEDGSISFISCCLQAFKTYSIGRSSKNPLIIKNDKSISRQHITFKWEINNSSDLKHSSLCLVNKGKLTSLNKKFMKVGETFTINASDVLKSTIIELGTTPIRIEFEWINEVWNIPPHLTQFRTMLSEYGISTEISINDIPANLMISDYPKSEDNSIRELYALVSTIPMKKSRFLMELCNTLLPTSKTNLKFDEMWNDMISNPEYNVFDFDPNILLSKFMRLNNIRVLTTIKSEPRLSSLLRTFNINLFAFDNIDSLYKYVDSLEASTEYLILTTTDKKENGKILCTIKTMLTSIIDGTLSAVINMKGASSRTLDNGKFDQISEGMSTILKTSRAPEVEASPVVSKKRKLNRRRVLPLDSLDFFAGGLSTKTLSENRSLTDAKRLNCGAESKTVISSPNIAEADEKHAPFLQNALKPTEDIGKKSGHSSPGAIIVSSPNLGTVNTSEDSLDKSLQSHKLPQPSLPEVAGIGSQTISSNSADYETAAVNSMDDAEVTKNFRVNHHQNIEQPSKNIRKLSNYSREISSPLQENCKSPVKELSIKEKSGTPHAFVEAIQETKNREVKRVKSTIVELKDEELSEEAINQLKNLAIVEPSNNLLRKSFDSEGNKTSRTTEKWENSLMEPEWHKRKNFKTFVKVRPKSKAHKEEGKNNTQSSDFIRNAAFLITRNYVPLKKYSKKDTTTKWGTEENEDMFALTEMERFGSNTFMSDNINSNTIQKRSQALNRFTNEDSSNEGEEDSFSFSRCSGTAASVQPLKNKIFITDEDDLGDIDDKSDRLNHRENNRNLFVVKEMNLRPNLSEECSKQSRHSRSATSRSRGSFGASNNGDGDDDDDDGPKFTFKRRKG
Sequence of Exo1 (form in crosslinking assay not stated);Mre11-Rad50-Xrs2 (MRX);Sae2 (Saccharomyces cerevisiae (P32829 whole entry, chain 2 of 3): as the sequence (P32829 whole entry H125N, chain 1 of 3) above, with N125H counted along it
Sequence of Exo1 (form in crosslinking assay not stated);Mre11-Rad50-Xrs2 (MRX);Sae2 (Saccharomyces cerevisiae (P12753 whole entry, chain 3 of 3): as the sequence (P12753 whole entry, stated change not applied, chain 2 of 3) above
Sequence of Exo1 (form in crosslinking assay not stated);Mre11-Rad50-Xrs2 (MRX);Sae2 (Saccharomyces cerevisiae (P33301 whole entry, chain 4 of 3): as the sequence (P33301 whole entry, stated change not applied, chain 3 of 3) above
Sequence of Exo1 D173A;Mre11-Rad50-Xrs2 (MRX) (Saccharomyces cerevisiae (P32829 whole entry, chain 2 of 3): as the sequence (P32829 whole entry H125N, chain 1 of 3) above, with N125H counted along it
Sequence of Exo1 D173A;Mre11-Rad50-Xrs2 (MRX) (Saccharomyces cerevisiae (P12753 whole entry, chain 3 of 3): as the sequence (P12753 whole entry, stated change not applied, chain 2 of 3) above
Sequence of Exo1 D173A;Mre11-Rad50-Xrs2 (MRX) (Saccharomyces cerevisiae (P33301 whole entry, chain 4 of 3): as the sequence (P33301 whole entry, stated change not applied, chain 3 of 3) above
Sequence of Mre11-Rad50-Xrs2 (MRX);Sae2 (Saccharomyces cerevisiae (P32829 whole entry, chain 1 of 3): as the sequence (P32829 whole entry H125N, chain 1 of 3) above, with N125H counted along it
Sequence of Mre11-Rad50-Xrs2 (MRX);Sae2 (Saccharomyces cerevisiae (P12753 whole entry, chain 2 of 3): as the sequence (P12753 whole entry, stated change not applied, chain 2 of 3) above
Sequence of Mre11-Rad50-Xrs2 (MRX);Sae2 (Saccharomyces cerevisiae (P33301 whole entry, chain 3 of 3): as the sequence (P33301 whole entry, stated change not applied, chain 3 of 3) above

B1: TP74/TP2680 42 bp duplex with 4 nt 3' overhangs (dsDNA)
DNA 1: CTGCAGGGTTTTTGTTCCAGTCTGTAGCACTGTGTAAGACAGGCCA
DNA 2: CTGTCTTACACAGTGCTACAGACTGGAACAAAAACCCTGCAGTACA
Regarding B1, the binding result in data set [1], in data set [2] and in data set [3] was “binds” in each case.

B2: TP74/TP2681 branched substrate (dsDNA)
DNA 1: B1 DNA 1
DNA 2: CTAGCTACTTGACACAGTGCTACAGACTGGAACTGACTTCATGCTA
In the case of B2, the binding result in data set [4] is “binds”.

B3: TP2722/TP2723 90 bp, 5' azide (dsDNA)
DNA 1: AAGTAAATCATTAATCTAACAATGCGCTCATCGTCATCCTCACATCGGCCTGTCTTACACAGTGCTAAGCTCGGAACAAAAACCCTGCAG
DNA 2: CTGCAGGGTTTTTGTTCCGAGCTTAGCACTGTGTAAGACAGGCCGATGTGAGGATGACGATGAGCGCATTGTTAGATTAATGATTTACTT
modifications: 5 phosphorothioates at 5' end of each strand, azidophenacyl (APB) modified
On to B3, for which the binding result in data set [5] and in data set [6] was “binds” throughout.

B4: TP771/TP828 90 bp, 3' azide (dsDNA)
DNA 1: B3 DNA 1
DNA 2: B3 DNA 2
modifications: 5 phosphorothioates at 3' end of each strand, azidophenacyl (APB) modified
Consider B4, for which the binding result in data set [7] is on record as “binds”.

B5: TP2399/TP2400 blunt 100 bp duplex, pull-down (dsDNA)
DNA 1: GCTAAAGCGAAGAACACTGAAAGGTTCAAAACCTCCACTATAGTCCACTCGCAGTCGTACAAGAGGCTTCTCTGGCTGGTGAGAATTACCCAGACGTTCC
DNA 2: GGAACGTCTGGGTAATTCTCACCAGCCAGAGAAGCCTCTTGTACGACTGCGAGTGGACTATAGTGGAGGTTTTGAACCTTTCAGTGTTCTTCGCTTTAGC
As to B5, in data set [8], the binding result is given as “binds”.
